T1: Utp21 1–684 (tandem WD domain, GST-tag cleaved) (yeast (S. cerevisiae), UniProt Q06078 1-684)
T1 construct: The methods say only 'purified as described above' for the protein of the pull-down; also called tandem WD domain of Utp21; source: E. coli BL21(DE3), purified (Glutathione Sepharose, on-bead PreScission cleavage, Superdex 200); not shown: GST, N-terminal, cleaved
T1 sequence (looked up): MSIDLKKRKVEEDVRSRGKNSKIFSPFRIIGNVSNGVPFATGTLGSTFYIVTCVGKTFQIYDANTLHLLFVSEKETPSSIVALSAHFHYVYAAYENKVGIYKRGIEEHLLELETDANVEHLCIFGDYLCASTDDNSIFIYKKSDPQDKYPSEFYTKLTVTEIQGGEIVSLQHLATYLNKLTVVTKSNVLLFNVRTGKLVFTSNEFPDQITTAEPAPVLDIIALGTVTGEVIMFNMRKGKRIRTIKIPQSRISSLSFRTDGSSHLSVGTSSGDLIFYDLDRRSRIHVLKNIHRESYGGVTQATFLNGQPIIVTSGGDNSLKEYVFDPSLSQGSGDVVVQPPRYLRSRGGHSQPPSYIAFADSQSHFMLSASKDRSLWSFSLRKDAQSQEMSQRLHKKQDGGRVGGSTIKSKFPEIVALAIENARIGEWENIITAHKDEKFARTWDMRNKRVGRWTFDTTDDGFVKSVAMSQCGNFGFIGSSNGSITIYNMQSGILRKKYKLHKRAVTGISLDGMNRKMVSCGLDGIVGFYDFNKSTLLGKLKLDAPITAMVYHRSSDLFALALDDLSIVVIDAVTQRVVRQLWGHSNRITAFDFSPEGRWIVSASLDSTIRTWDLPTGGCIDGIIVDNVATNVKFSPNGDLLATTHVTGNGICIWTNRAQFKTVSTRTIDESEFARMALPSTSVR


Biological target: T1, Utp21 1–684 (tandem WD domain, GST-tag …)
Assay: pull-down; His6-Smt3-tagged Utp18 fragments (0.95 nmol) incubated with Utp21 1–684 (1.9 nmol) 2 h at 4°C, bound to Ni Sepharose beads; washed with 25 mM Tris-HCl pH 7.6, 500 mM NaCl, 10 mM imidazole; SDS-PAGE, Coomassie
Conditions: both partners purified

binding result | Binder
binds | His6-Smt3-Utp18 139–190 (domain or fragment, yeast (S. cerevisiae), UniProt P40362 139-190, looked up, Utp18, yeast (S. cerevisiae), residues 139–190; source: expressed from pET28a, purified (HisTrap and Q chromatography); not shown: His6, N-terminal, kept; Smt3, N-terminal, kept) VTNKTKKLRTSYNESKINGVHYINRLRSQFEKIYPRPKWVDDESDSELDDEE
binds | EDTMDVDDEDDSSSDDYSEDSEEAAWIDSDDEKIKVPILV (domain or fragment, yeast (S. cerevisiae), UniProt P40362 100-139, looked up, Utp18, yeast (S. cerevisiae), residues 100–139; source: expressed from pET28a, purified (HisTrap and Q chromatography); not shown: His6, N-terminal, kept; Smt3, N-terminal, kept) [His6-Smt3-Utp18 100–139]
binds | His6-Smt3-Utp18 100–190 (domain or fragment, yeast (S. cerevisiae), UniProt P40362 100-190, looked up, Utp18, yeast (S. cerevisiae), residues 100–190; source: expressed from pET28a, purified (HisTrap and Q chromatography); not shown: His6, N-terminal, kept; Smt3, N-terminal, kept) EDTMDVDDEDDSSSDDYSEDSEEAAWIDSDDEKIKVPILVTNKTKKLRTSYNESKINGVHYINRLRSQFEKIYPRPKWVDDESDSELDDEE
